What follows are substances tested against human insulin receptor (Homo sapiens, UniProt P06213) (assay: Insulin receptor binding, SPA (Scintillation Proximity Assay) microtiterplate antibody capture assay). Details: binding affinity relative to that of human insulin; purified recombinant human insulin receptor minus exon 11; A14 Tyr[125I]-human insulin tracer.
human insulin receptor, sequence (P06213 28-746 isoform P06213-2 limits assumed): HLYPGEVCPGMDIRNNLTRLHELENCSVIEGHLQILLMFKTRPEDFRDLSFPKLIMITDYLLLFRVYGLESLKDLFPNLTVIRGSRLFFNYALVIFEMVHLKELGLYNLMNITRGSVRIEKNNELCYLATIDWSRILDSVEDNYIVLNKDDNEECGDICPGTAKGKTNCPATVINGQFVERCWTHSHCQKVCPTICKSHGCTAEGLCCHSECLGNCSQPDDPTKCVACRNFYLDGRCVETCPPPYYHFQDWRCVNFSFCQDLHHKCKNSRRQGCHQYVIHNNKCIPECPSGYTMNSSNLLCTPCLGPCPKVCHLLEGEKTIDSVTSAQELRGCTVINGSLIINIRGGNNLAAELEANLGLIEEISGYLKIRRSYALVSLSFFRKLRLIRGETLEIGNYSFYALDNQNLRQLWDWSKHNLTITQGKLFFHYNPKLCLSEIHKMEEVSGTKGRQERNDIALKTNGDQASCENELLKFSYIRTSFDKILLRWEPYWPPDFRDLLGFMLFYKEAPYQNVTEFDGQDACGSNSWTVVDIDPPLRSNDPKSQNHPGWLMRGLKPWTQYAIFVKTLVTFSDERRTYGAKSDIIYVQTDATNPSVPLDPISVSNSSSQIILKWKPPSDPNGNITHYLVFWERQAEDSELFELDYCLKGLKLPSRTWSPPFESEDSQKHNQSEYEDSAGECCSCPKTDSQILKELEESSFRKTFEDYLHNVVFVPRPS
human insulin receptor, sequence (P06213 763-1382 partner limits assumed): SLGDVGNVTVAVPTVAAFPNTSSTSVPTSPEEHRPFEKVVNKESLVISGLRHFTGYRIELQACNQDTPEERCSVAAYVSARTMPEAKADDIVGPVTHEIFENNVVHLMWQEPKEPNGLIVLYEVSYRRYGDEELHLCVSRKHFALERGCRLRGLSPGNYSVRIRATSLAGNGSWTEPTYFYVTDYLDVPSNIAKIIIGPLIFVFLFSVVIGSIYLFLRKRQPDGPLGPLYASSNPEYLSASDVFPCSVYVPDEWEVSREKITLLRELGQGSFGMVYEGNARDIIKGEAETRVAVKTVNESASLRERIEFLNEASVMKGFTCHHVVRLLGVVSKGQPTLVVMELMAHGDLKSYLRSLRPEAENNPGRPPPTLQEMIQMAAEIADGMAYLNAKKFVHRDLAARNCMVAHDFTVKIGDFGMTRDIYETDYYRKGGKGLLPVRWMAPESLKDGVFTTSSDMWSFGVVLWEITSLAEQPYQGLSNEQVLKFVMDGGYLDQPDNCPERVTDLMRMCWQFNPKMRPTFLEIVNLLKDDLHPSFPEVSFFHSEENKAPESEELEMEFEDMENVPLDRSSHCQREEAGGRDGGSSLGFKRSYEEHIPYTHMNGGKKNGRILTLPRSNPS
Protocol: These extended insulins were tested for biological insulin activity as measured by binding affinity to the human insulin receptor relative to that of human insulin as described below.
Insulin Receptor Binding of the Insulins of the Invention
The affinity of the insulins of the invention for the human insulin receptor can be determined by a SPA assay (Scintillation Proximity Assay) microtiterplate antibody capture assay. […] Reagent mix for a single Packard Optiplate (Packard No. 6005190) is composed of 2.4 μl of a 1:5000 diluted purified recombinant human insulin receptor − (minus) exon 11, an amount of a stock solution of A14 Tyr[125I]-human insulin corresponding to 5000 cpm per 100 μl of reagent mix, 12 μl of a 1:1000 dilution of F12 antibody, 3 ml of SPA-beads and binding buffer to a total of 12 ml. A total of 100 μl is then added and a dilution series is made from appropriate samples. To the dilution series is then added 100 μl of reagent mix and the samples are incubated for 16 hours while gently shaken. The phases are then separated by centrifugation for 1 min and the plates counted in a Top-counter. The binding data are fitted using the nonlinear regression algorithm in the GraphPad Prism 2.01 (GraphPad Software, San Diego, Calif.).

Row | Substance | Relative insulin receptor binding [%]
1 | A14E, A21Q, A22-A62G, B25H, desB30 Human Insulin [Example 20] | 2

What follows are substances tested against purified recombinant human insulin receptor - (minus) exon 11 (human) (UniProt P06213) (assay: SPA antibody-capture competition assay, displacement of A14 Tyr[125I]-human insulin from recombinant human insulin receptor minus exon 11; affinity relative to human insulin). Details: not given.

Row | Substance | Relative insulin receptor binding [%]
2 | A14E, A21Q, A22-A45G, B25H, desB30 Human Insulin (from UniProt P01308) (ligand) | 12
3 | A14E, A21Q, A22-A45G, B(-12)-(-1)G, B25H, desB30 Human Insulin (from UniProt P01308) (ligand) | 11
4 | A14E, A21Q, A22-A62G, B25H, desB30 Human Insulin (from UniProt P01308) (ligand) | 2
5 | A14E, A21Q, A22G-A51G, B25H, desB30 Human Insulin (from UniProt P01308) (ligand) | 12
6 | A21Q, A22-A51G, desB30 Human Insulin (from UniProt P01308) (ligand) | 17
7 | A21Q, A22-A57G, desB30 Human Insulin (from UniProt P01308) (ligand) | 20
8 | A22-27G desB30 Human Insulin (from UniProt P01308) (ligand) | 44

More lines, now with the values ahead:

Row | Relative insulin receptor binding [%] | Substance
9 | 10 | A14E, A21Q, A22-A45G, B(-6)-(-1)G, B25H, desB30 Human Insulin (from UniProt P01308) (ligand)
10 | 7.2 | A14E, A21Q, A22-A45G, B(-18)-(-1)G, B25H, desB30 Human Insulin (from UniProt P01308) (ligand)
11 | 14 | A14E, A21Q, A22-A57G, B25H, desB30 Human Insulin (from UniProt P01308) (ligand)
12 | 14 | A21Q, A22-A45G, B(-6)-(-1G), desB30 Human Insulin (from UniProt P01308) (ligand)
13 | 16 | A21Q, A22-A45G, B(-12)-(-1)G, desB30 Human Insulin (from UniProt P01308) (ligand)
14 | 13 | A21Q, A22-A45G, B(-18)-(-1)G, desB30 Human Insulin (from UniProt P01308) (ligand)
15 | 14 | A21Q, A22-A45G, desB30 Human Insulin (from UniProt P01308) (ligand)
16 | 41 | A22-33G desB30 Human Insulin (from UniProt P01308) (ligand)
17 | 30 | A22-39G desB30 Human Insulin (from UniProt P01308) (ligand)
18 | 25 | A22-45G desB30 Human Insulin (from UniProt P01308) (ligand)

— patent US9260501B2, “Peptide extended insulins” (priority 2006, dated 2016)
